Assay results published in paper PMC4162137.

Tests used:
[1] = molecular target: TMPRSS2-ERG8 encoded protein (Type II ERG) fused to an N- or C-terminal fragment of Venus (human); assay: split reporter (BiFC, NanoBiT); BiFC with split Venus in HEK293 cells, 24 hours after transfection, percent of fluorescent cells counted by flow cytometry
[2] = molecular target: TMPRSS2-ERG3 encoded protein (Type I ERG) fused to an N- or C-terminal fragment of Venus (human) (UniProt P11308)
[3] = molecular target: TMPRSS2-ERG3 encoded protein (Type I ERG) fused to an N- or C-terminal fragment of Venus (human) (UniProt P11308); assay: split reporter (BiFC, NanoBiT); BiFC with split Venus in HEK293 cells, 24 hours after transfection, percent of fluorescent cells counted by flow cytometry

TMPRSS2-ERG8 encoded protein (Type II ERG) fused to an N- or C-terminal fragment of Venus (human), sequence (P11308 whole entry, the tested form may be a part): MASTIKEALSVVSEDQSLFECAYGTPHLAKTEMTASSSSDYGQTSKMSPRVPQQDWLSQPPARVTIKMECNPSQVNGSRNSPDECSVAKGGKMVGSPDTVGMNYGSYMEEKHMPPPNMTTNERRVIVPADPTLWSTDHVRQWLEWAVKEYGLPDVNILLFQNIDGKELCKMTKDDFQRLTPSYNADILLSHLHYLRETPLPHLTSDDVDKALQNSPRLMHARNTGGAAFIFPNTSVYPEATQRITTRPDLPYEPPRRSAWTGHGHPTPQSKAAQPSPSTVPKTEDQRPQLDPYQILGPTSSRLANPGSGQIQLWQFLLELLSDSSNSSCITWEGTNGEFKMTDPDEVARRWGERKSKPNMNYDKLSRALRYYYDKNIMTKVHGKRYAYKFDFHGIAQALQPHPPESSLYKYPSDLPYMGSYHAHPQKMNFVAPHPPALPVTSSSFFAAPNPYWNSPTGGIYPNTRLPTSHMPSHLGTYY

Substance	percent of cells positive for fluorescence (% cells positive for fluorescence) [1]	mef2c enhancer luciferase reporter in HEK293 cells: 40 ng TM-ERG3 with 0-40 ng TM-ERG8 plasmid; reduction in luciferase activity against TM-ERG3 alone (at 20 ng or 40 ng TM-ERG8) (% reduction in luciferase activity) [2]	percent of cells positive for fluorescence (% cells positive for fluorescence) [3]	percent of cells positive for fluorescence (% positive cells) [1]
TMPRSS2-ERG3 encoded protein (Type I ERG) fused to an N- or C-terminal fragment of Venus (from UniProt P11308-4 33-479) (natural protein)	10.1			
TMPRSS2-ERG8 encoded protein (Type II ERG) fused to an N- or C-terminal fragment of Venus (natural protein)		50	12.7	5.4
